Measured values published in US20230374534, “TRANSGENIC PLANT HAVING COLD RESISTANCE OVEREXPRESSING THIOREDOXIN TRX-H2 PROTEIN” (INDUSTRY-ACADEMIC COOPERATION FOUNDATION GYEONGSANG …, published 2023).

Assays:
CBF1 = CBF1 (Arabidopsis thaliana, UniProt P93835 SEQ:1-213); experiment: EMSA; 1 mM DTT (reducing), poly(dI-dC), 25 C, 30 min; binding redox-dependent; gel only in figure; details: tags: His (pET28a, E. coli); label: biotin
Procedure: FIGS. 3A to 3D are the results of EMSAs showing the redox-dependent binding of His-CBF1 to biotin-labeled COR15a promoter fragment (oligoprobe) in the presence of 1 mM DTT (FIG. 3A), 1 mM H₂O₂ (FIG. 3B), and a Trx system comprising 5 μM Trx-h2 (FIG. 3C) or Trx-h2(C/S) (FIG. 3D) with His-MBP as a control. FIG. 3E is the schematic representation of the COR15a promoter. P1 and P2 indicate the primer binding sites for qRT-PCR. […] (FIG. 3F) or 4° C. (FIG. 3G) for 6 h.
To carry out EMSAs, a biotin-labeled oligonucleotide probe (Table 1) was processed using a lightshift™ chemiluminescent EMSA Kit (Thermo Fisher Scientific, Rockford, IL, USA). Recombinant CBF1 (5 μg) was incubated with 40 fmol of biotin-labeled probe and 20 μl of reaction mixture containing 25 ng/μl Poly (dl-dC) binding buffer at 25° C. for 30 min. The reaction products were resolved on a 6% polyacrylamide gels. Probes bound to CBF1 were transferred to charged Hybond-N membrane and detected by western blotting with anti-biotin antibody (Abcam, Cambridge, MA, USA).

MBP (control) = MBP (control) (UniProt P0AEX9 P0AEX9:27-396); experiment: EMSA; His-MBP used as negative control; gel only in figure

Sequence of CBF1 (P93835 whole entry, the tested form may be a part): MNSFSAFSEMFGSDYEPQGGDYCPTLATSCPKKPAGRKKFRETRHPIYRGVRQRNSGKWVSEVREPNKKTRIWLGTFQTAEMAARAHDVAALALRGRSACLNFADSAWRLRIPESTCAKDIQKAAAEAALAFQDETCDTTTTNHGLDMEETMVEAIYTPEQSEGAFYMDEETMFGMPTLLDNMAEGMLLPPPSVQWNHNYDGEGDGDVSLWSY

B1: COR15a promoter CRT/DRE probe (-275 to -253) (dsDNA)
DNA 1: ATTTCATGGCCGACCTGCTTTTT
DNA 2: AAAAAGCAGGTCGGCCATGAAAT
- binding result (CBF1): binds
- binding result (MBP (control)): no binding
